Tests used:
[1] = target: FlaA (TDE1712), flagellar filament sheath protein of Treponema denticola (Treponema denticola ATCC 35405); experiment: isolation of native flagellar filaments, 2D gel electrophoresis with densitometry; periplasmic flagella isolated from the ΔflaB2 mutant; 2D gels, Coomassie staining, densitometry; ratios relative to FlaA
[2] = target: FlaA (TDE1712), flagellar filament sheath protein of Treponema denticola (Treponema denticola ATCC 35405); experiment: isolation of native flagellar filaments, 2D gel electrophoresis with densitometry and immunoblot
[3] = target: FlaA (TDE1712), flagellar filament sheath protein of Treponema denticola (Treponema denticola ATCC 35405); experiment: isolation of native flagellar filaments, 2D gel electrophoresis with densitometry; periplasmic flagella isolated from the ΔflaB3 mutant; 2D gels, Coomassie staining, densitometry; ratios relative to FlaA
[4] = target: FlaA (TDE1712), flagellar filament sheath protein of Treponema denticola (Treponema denticola ATCC 35405); experiment: isolation of native flagellar filaments, 2D gel electrophoresis with densitometry; periplasmic flagella isolated from the ΔflaB1 mutant; 2D gels, Coomassie staining, densitometry; ratios relative to FlaA

“FlaB1 (TDE1477), flagellar filament core flagellin of Treponema denticola (from UniProt Q73MN1 1-286) (natural protein)” gave a stoichiometry relative to FlaA in isolated filaments (ratio relative to FlaA) [1] of 1.04, a stoichiometry relative to FlaA in isolated filaments (ratio relative to FlaA) [2] of 0.71 and a stoichiometry relative to FlaA in isolated filaments (ratio relative to FlaA) [3] of 1.12.
“FlaB2 (TDE1004), flagellar filament core flagellin of Treponema denticola (from UniProt Q73NZ6 1-286) (natural protein)” showed a stoichiometry relative to FlaA in isolated filaments (ratio relative to FlaA) [2] of 0.61, a stoichiometry relative to FlaA in isolated filaments (ratio relative to FlaA) [3] of 0.36 and a stoichiometry relative to FlaA in isolated filaments (ratio relative to FlaA) [4] of 0.5.
In the case of “FlaB3 (TDE1475), flagellar filament core flagellin of Treponema denticola (from UniProt Q73MN3 1-285) (natural protein)”, the stoichiometry relative to FlaA in isolated filaments (ratio relative to FlaA) [1] was 0.38, the stoichiometry relative to FlaA in isolated filaments (ratio relative to FlaA) [2] was 0.18 and the stoichiometry relative to FlaA in isolated filaments (ratio relative to FlaA) [4] was 0.94.

Source: PMC9481697
